Data reported in IntAct's records for PubMed 12591280.

B1: Actin nucleation-promoting factor WAS (Homo sapiens), P42768 (parent)
chain: MSGGPMGGRPGGRGAPAVQQNIPSTLLQDHENQRLFEMLGRKCLTLATAVVQLYLALPPGAEHWTKEHCGAVCFVKDNPQKSYFIRLYGLQAGRLLWEQELYSQLVYSTPTPFFHTFAGDDCQAGLNFADEDEAQAFRALVQEKIQKRNQRQSGDRRQLPPPPTPANEERRGGLPPLPLHPGGDQGGPPVGPLSLGLATVDIQNPDITSSRYRGLPAPGPSPADKKRSGKKKISKADIGAPSGFKHVSHVGWDPQNGFDVNNLDPDLRSLFSRAGISEAQLTDAETSKLIYDFIEDQGGLEAVRQEMRRQEPLPPPPPPSRGGNQLPRPPIVGGNKGRSGPLPPVPLGIAPPPPTPRGPPPPGRGGPPPPPPPATGRSGPLPPPPPGAGGPPMPPPPPPPPPPPSSGNGPAPPPLPPALVPAGGLAPGGGRGALLDQIRQGIQLNKTPGAPESSALQPPPQSSEGLVGALMHVMQKRSRAIHSSDEGEDQAGDEDEDDEWDD

Assays:
[1] = variants of: B1; settings: with wipf1_human WIPF1, O43516
Sequence of wipf1_human WIPF1, O43516 (O43516 whole entry): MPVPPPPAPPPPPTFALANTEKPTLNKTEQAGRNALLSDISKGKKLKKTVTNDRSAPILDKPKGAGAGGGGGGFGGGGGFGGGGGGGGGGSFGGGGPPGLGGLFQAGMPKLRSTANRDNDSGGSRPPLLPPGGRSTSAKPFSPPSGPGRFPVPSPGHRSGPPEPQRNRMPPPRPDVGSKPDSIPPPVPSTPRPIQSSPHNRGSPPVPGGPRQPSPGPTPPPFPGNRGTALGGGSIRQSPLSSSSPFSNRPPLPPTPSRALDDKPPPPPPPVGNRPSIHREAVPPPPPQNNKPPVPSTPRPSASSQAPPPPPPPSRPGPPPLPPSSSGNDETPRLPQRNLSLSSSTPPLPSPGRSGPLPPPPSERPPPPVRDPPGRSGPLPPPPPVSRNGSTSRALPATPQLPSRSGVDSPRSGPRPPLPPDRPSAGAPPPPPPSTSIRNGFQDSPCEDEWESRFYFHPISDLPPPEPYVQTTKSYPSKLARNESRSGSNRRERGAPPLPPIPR

[2] = variants of: B1; settings: with wipf1_human WIPF1, O43516; remark: listed apart in the source

| Variant | effect of a mutation on the interaction [1] | effect of a mutation on the interaction [2] |
| --- | --- | --- |
| R138E | with no effect | increasing interaction strength |
| R138P | disrupting interaction strength | decreasing interaction strength |
| R138A | with no effect | increasing interaction strength |
| A134T | disrupting interaction strength | – |
